How the values were obtained:
[1] = biological target: T1, Recombinant human TGFβ1 (active TGFβ1) (human, UniProt P01137 279-390); experiment: radioreceptor assay (RRA): scFv inhibits [125I]TGFβ1 binding to A549 cells; approx IC50
T1 construct: mature; Recombinant human TGFβ1 from R&D Systems; also called TGFb1
Text: (§1) The scFv fragments were subsequently tested for their ability to neutralise binding of ¹²⁵I-TGFβ₁ to A549 cells in a radioreceptor binding assay (RRA), using the protocol described in Example 3 (see below). For the RRA, individual clones were expressed as soluble scFv and subsequently purified from periplasmic preparations by immobilised metal affinity chromatography (IMAC) followed by fractionation of monomeric scFv by gel filtration FPLC on a Superdex 75 column (Pharmacia).
(§2) A549 cells were seeded into 24-well plates at 2×10⁵ cells per well for 24 hours in order to achieve >90% confluency. Immediately before the assay, monolayers were washed twice with buffer (1:1 DMEM:Hams-F12) and 0.5 ml assay buffer (1:1 DMEM:Hams F12+0 1% BSA) was added. Two or three-fold serial dilutions of antibodies were prepared in assay buffer and added to an equal volume of 40 pM [¹²⁵I]TGFβ₁ in assay buffer.

[2] = biological target: T1, Recombinant human TGFβ1 (active TGFβ1); experiment: radioreceptor assay, his-preps of scFv (FIG. 2); reference JT182 scFv
Experimental: as §2
Purified preparations of SL15S scFv, SL15A IgG4, SL15S IgG4 and Mab ID.11.16 (Genzyme mAb) were also analysed (FIG. 3).

[3] = biological target: T2, Recombinant human latent TGFβ1 (human, UniProt P01137 30-278; P01137 279-390); experiment: radioreceptor assay and TF1 proliferation assay in the presence of latent TGFβ1
T2 construct: domain: latency associated peptide;mature; From R&D Systems

[4] = biological target: T1, Recombinant human TGFβ1 (active TGFβ1); experiment: radioreceptor assay: inhibition of [125I]TGFβ1 binding to A549 cells; reference CS37 scFv
Text: as §1, §2

T1 sequence (P01137 279-390 limits assumed): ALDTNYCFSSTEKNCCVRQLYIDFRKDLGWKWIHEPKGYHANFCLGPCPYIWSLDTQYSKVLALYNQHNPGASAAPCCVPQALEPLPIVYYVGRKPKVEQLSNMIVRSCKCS
T2 sequence (P01137 30-278 limits assumed, chain 1 of 2): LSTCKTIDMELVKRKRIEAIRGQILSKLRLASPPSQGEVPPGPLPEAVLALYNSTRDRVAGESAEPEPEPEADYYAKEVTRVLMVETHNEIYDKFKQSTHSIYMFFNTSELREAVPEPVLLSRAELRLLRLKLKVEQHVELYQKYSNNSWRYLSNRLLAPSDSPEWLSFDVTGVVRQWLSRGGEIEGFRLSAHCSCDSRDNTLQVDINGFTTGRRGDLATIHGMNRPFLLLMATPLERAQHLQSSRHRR
T2 sequence (P01137 279-390 limits assumed, chain 2 of 2): as the sequence (P01137 279-390 limits assumed) above

Binder	IC50 [1]	fold more active than JT182 scFv [2]	binding result [3]	fold better than CS37 (IC50 in the RRA) [4]
CS37 scFv (31G9 VH/CS37 VL) (scFv, V domains shown, not shown: scFv linker, domain order and tag (on phage: the pCANTAB6 gene III fusion); WO97/13844 is cited for CS37) VH: QVQLVQSGGGVVQPGRSLRLSCAASGFTFSSYGMHWVRQAPGKGLEWVAVISYDGSIKYYADSVKGRFTISRDNSKNTLYLQMNSLRAEDTAVYYCARTGEYSGYDTSGVELWGQGTTVTVSS VL: EIVLTQSPSSLSASVGDRVTITCRASQGIGDDLGWYQQKPGKAPILLIYGTSTLQSGVPSRFSGSGSGTDFTLTINSLQPEDFATYYCLQDSNYPLTFGGGTRLEIK	10 to 15 nM	–	–	–
JT182 scFv (JT182 VH/CS37 VL) (scFv, V domains shown, used as his-prep; not shown: scFv linker, domain order and His tag) VH: QVQLVESGGGVVQPGRSLRLSCAASGFTFSSYGMHWVRQAPGKELEWVAVISYDGSIKYYADSVKGRFTISRDNSKNTLYLQMNSLRAEDTAVYYCARTGEYSGYDTPASPDWGQGTTVTVSS VL: EIVLTQSPSSLSASVGDRVTITCRASQGIGDDLGWYQQKPGKAPILLIYGTSTLQSGVPSRFSGSGSGTDFTLTINSLQPEDFATYYCLQDSNYPLTFGGGTRLEIK	0.5 to 1 nM	–	–	–
SL15S scFv (SL15 VH/SL15S VL) (scFv, V domains shown, soluble scFv was purified by IMAC ('his-preps') and FPLC; also called CAT-191; CAT 191; not shown: scFv linker, domain order and His/other tag (on phage: the pCANTAB6 gene III fusion)) VH: EVQLVESGGGVVQPGRSLRLSCAASGFTFSSYGMHWVRQAPGKELEWVAVISYDGSIKYYADSVKGRFTISRDNSKNTLYLQMNSLRAEDTAVYYCARTGEYSGYDTDPQYSWGQGTTVTVSS VL: EIVLTQSPSSLSASVGDRVTITCRSSQGIGDDLGWYQQKPGKAPILLIYGTSTLQSGVPSRFSGSGSGTDFTLTINSLQPEDFATYYCLQDSNYPLTFGGGTRLEIK	~0.1 nM	10 fold	no binding	≥ 100 fold

Source: patent publication US20030064069A1 (CAMBRIDGE ANTIBODY TECHNOLOGY, published 2003)
